Here are results for four sequences from patent publication US10500249B2, “Compositions and methods for preventing or treating diseases, conditions, or processes characterized by aberrant fibroblast proliferation and extracellular matrix deposition” (MOERAE MATRIX, INC., priority 2014, dated 2019).

Assay in all cases: Kinase Profiling Assay
Holding throughout (type): biochemical
What all share (details): 100 μM

Assay [1] deals with Tie2(R849W) (h) (Homo sapiens, UniProt Q02763, R849W). The procedure, abridged:
(§1)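 Radiometric filter-binding format: cationic substrate takes up labeled phosphate from ATP unless the inhibitor peptide blocks the kinase. Substrate bound to an anionic filter, scintillation-counted, normalized to 100% activity control. Duplicates; part of a 266-kinase selectivity panel for MK2 peptides.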

Assay [2] addresses T1, IGF-1R (h) (Homo sapiens, UniProt P08069).
T1 construct: purchased Millipore
The method in brief: as §1

In assay [3] the target is T2, GRK5 (h) (Homo sapiens, UniProt P34947).
T2 construct: purchased Millipore
T2 sequence (P34947 whole entry): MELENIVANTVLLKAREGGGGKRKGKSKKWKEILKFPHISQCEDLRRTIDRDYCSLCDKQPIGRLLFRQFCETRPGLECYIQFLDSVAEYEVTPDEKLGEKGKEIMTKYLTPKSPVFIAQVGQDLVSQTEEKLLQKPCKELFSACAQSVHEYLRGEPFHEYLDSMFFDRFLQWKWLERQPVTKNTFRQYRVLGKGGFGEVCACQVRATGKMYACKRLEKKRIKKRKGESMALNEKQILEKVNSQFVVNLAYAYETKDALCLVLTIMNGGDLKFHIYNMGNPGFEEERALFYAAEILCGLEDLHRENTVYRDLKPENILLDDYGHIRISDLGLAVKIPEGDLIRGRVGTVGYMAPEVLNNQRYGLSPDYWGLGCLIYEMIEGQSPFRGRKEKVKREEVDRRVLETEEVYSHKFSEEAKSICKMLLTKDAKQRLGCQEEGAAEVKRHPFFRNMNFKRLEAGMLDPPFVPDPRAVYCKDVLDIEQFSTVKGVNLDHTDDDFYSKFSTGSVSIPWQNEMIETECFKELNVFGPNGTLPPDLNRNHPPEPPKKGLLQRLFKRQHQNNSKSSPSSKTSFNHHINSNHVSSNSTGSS
The procedure, abridged: as §1

Assay [4] concerns the target T3, CK2α2 (h) (Homo sapiens, UniProt P19784).
T3 construct: purchased Millipore
The method in brief:
as §1

Assay [5] addresses T4, MKK7β (h) (Homo sapiens, UniProt O14733).
T4 construct: purchased Millipore
T4 sequence (O14733 1-419): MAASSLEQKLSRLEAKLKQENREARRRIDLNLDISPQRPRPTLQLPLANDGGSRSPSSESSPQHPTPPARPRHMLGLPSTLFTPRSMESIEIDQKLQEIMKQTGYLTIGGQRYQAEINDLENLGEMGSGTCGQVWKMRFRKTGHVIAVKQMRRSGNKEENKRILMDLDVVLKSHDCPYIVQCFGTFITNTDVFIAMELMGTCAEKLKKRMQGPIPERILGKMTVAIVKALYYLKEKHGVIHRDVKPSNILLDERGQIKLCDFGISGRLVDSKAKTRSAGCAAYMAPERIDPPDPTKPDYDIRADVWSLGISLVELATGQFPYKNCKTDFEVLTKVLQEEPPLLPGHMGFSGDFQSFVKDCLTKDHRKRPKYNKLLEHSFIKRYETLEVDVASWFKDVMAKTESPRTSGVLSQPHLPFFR
The procedure, abridged:
as §1

Assay [6] has as its target T5, DCAMKL2 (h) (Homo sapiens, UniProt Q8N568).
T5 construct: purchased Millipore
T5 sequence (Q8N568 1-766): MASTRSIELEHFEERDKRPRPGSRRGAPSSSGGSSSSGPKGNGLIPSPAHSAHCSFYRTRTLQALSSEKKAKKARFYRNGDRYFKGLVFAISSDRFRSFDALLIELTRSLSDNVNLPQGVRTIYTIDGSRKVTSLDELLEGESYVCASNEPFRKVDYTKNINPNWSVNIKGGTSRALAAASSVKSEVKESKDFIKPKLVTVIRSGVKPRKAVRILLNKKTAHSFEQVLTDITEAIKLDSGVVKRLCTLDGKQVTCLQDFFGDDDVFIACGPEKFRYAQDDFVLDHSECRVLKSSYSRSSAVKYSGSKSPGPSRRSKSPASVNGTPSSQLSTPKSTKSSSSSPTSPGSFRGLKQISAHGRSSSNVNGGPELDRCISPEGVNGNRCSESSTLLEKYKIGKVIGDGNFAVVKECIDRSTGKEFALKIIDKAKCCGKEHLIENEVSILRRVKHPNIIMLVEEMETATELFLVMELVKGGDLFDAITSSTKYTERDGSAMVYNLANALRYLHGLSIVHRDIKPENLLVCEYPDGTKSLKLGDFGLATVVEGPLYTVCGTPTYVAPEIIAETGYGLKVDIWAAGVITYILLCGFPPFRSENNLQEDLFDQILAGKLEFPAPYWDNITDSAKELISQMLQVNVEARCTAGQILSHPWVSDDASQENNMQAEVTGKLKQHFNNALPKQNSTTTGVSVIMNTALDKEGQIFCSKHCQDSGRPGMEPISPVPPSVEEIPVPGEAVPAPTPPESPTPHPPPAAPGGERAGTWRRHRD
The method in brief:
as §1

Assay [7] deals with T6, cKit(V560G) (h) (Homo sapiens, UniProt P10721, V560G).
T6 construct: purchased Millipore
The method in brief:
as §1

In assay [8] the target is JNK1α1 (h) (Homo sapiens, UniProt P45983). The procedure, abridged: as §1
Assay [9] addresses T7, PKA (h) (Homo sapiens, UniProt P17612).
T7 construct: purchased Millipore
The procedure, abridged: as §1

The target in assay [10] is T8, CK1γ3 (h) (Homo sapiens, UniProt Q9Y6M4).
T8 construct: purchased Millipore
T8 sequence (Q9Y6M4 whole entry): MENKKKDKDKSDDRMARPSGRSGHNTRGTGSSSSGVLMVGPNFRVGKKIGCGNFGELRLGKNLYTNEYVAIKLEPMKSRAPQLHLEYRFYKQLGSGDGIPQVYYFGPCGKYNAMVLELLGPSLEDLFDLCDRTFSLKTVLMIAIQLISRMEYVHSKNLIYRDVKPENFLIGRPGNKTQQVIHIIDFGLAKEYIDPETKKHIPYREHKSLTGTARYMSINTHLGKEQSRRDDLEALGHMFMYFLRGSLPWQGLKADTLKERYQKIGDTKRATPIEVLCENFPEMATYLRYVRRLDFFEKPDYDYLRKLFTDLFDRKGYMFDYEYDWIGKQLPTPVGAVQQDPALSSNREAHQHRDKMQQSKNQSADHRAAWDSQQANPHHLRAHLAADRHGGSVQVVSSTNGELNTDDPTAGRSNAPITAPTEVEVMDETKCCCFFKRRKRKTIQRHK
The method in brief: as §1

Assay [11] deals with T9, PAR-1Bα (h) (Homo sapiens, UniProt Q7KZI7).
T9 construct: purchased Millipore
T9 sequence (Q7KZI7 1-725 isoform Q7KZI7-4): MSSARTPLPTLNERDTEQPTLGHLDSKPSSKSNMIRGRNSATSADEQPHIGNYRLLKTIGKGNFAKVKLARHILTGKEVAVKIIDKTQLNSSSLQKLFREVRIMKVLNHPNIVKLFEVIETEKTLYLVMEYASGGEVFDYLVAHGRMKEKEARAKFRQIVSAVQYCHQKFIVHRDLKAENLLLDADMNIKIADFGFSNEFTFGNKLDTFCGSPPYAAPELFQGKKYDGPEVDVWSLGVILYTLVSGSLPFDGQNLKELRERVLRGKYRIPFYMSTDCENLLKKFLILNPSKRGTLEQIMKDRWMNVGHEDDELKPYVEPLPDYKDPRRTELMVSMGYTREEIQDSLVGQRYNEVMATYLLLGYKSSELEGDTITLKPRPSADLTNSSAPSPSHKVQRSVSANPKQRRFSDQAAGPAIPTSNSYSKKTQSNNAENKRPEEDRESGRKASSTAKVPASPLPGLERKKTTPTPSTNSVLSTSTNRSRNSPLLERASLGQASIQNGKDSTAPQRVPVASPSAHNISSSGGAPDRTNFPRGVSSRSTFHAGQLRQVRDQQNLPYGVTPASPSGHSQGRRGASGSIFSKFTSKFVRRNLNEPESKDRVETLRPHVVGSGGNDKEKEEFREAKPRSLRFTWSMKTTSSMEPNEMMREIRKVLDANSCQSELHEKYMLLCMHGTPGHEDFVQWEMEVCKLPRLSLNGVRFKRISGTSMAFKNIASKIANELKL
The procedure, abridged: as §1

The target in assay [12] is Abl (H396P) (h) (Homo sapiens, UniProt P00519, H396P). The method in brief:
as §1

In assay [13] the target is T10, HIPK3 (h) (Homo sapiens, UniProt Q9H422).
T10 construct: purchased Millipore
T10 sequence (Q9H422 whole entry): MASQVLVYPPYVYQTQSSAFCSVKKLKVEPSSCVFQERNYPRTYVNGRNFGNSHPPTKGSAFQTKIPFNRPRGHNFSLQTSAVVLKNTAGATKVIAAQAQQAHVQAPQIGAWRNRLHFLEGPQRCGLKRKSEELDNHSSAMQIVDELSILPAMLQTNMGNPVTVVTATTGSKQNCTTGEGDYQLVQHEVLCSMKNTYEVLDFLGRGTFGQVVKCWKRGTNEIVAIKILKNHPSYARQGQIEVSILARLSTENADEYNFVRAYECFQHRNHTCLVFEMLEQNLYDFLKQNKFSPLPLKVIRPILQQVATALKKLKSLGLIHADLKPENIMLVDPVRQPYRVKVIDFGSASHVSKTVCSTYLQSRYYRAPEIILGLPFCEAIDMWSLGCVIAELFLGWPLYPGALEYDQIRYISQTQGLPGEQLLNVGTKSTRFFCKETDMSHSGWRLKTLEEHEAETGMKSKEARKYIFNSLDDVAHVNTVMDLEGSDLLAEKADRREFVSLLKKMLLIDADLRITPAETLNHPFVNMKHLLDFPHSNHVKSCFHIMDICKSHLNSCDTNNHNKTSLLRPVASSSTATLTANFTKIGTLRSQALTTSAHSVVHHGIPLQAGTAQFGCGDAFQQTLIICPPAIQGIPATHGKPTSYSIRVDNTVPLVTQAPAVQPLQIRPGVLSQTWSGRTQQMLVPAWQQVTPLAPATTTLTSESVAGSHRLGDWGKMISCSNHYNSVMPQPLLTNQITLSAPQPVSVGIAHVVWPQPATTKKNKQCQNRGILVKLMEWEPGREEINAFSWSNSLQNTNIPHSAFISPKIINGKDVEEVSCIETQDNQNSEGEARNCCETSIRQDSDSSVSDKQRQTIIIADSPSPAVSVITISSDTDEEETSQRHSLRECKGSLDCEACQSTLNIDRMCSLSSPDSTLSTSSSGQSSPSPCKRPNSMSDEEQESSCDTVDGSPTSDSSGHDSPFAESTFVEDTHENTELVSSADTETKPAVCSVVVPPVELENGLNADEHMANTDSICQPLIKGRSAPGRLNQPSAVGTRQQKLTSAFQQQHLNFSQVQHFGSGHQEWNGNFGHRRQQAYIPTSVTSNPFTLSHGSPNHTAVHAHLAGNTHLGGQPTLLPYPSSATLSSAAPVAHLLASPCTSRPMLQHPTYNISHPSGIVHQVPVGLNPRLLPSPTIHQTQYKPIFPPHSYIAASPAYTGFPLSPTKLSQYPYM
The procedure, abridged:
as §1

In assay [14] the target is Lck (h) (Homo sapiens, UniProt P06239). The method in brief: as §1
Chain of Lck (h) (P06239 whole entry): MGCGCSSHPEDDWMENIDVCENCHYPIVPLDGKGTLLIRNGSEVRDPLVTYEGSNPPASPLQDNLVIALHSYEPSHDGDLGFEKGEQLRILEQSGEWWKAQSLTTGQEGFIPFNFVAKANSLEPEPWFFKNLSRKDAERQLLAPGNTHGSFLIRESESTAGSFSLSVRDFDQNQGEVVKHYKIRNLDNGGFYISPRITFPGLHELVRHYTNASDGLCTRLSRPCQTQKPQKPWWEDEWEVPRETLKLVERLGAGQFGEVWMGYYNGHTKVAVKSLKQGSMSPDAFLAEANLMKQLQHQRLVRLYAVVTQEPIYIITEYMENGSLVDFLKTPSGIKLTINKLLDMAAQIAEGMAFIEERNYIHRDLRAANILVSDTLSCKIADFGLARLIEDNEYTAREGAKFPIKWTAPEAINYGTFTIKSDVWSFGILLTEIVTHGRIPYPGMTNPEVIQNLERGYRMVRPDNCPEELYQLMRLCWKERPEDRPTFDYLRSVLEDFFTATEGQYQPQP
Assay [15] addresses T11, Aurora-A (h) (Homo sapiens, UniProt O14965).
T11 sequence (O14965 1-403): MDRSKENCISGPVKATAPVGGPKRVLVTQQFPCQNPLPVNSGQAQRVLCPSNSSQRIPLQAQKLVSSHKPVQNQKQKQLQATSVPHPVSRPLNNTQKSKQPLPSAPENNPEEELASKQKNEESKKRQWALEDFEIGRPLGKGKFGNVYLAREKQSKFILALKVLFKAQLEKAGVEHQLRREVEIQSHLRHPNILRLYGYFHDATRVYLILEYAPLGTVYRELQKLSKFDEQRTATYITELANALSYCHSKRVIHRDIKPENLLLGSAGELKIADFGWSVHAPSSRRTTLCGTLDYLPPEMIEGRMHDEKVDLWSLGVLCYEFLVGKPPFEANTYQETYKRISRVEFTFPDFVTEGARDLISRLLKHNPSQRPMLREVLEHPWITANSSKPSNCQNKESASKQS
The procedure, abridged: as §1

T3 sequence (P19784 whole entry): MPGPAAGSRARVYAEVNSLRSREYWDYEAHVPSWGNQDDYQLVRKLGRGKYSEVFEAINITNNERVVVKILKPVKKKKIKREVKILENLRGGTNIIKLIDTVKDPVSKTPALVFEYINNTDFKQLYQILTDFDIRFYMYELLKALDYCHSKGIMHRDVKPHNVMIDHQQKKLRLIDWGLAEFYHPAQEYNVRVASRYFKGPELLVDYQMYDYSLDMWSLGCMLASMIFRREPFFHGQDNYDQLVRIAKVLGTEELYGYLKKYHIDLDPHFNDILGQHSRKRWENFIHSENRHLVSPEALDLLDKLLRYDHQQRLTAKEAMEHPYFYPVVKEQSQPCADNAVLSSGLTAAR
Chain of Tie2(R849W) (h) (Q02763 23-1124 R849W): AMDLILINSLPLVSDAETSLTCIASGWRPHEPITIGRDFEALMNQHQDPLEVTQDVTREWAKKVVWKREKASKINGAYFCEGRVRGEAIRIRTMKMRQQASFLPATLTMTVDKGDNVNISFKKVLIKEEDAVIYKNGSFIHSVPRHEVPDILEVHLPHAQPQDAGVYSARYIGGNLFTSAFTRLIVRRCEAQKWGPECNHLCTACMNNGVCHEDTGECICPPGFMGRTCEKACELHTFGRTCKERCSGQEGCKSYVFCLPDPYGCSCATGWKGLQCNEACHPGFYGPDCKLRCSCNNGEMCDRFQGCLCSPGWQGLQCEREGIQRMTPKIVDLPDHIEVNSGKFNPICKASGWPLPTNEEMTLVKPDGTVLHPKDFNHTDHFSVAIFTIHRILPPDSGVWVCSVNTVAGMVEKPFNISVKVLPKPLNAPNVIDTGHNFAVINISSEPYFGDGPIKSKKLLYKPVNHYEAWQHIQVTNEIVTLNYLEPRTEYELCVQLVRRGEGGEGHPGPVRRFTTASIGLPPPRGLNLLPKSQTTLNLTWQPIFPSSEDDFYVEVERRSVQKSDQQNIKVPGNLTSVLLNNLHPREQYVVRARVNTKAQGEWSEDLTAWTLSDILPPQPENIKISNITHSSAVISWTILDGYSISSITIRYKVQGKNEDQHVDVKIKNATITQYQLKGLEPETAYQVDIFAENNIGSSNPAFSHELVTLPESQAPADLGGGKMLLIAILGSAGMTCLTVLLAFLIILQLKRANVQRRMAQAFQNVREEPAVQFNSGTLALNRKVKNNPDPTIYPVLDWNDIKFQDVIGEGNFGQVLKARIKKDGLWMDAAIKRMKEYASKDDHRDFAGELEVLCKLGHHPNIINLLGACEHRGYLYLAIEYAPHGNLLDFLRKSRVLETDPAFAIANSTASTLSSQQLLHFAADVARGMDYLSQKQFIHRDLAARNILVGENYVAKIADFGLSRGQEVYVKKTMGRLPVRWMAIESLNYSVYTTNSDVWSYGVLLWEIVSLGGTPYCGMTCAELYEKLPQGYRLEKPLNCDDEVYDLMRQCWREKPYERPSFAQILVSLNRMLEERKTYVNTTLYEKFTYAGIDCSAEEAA

For the sequence KAFAKLAARLYRKALARQLGVAA [MMI-0400], the “% activity” value in assay [1] was 108%; in assay [2] it was 90%; in [3], 131%; in assay [4], 96%; in assay [5] it was 94%; in assay [6], 70%. The “% activity” value in assay [7] was found to be 124%; in assay [8], 98%.

On to “YARAAARQARAKALNRQLGVA (Mammalian) [MMI-0200]”, for which the “% activity” value in assay [1] worked out at 89%; in [2] it was 49%; in assay [3], 135%; in [4], 88%; in assay [9], 110%; in [10] it was 96%. The “% activity” value in assay [6] is recorded as 131%; in [11], 110%.

As for “HRRIKAWLKKIKALARQLGVAA (Mammalian) [MMI-0500]”, the “% activity” value worked out at 118% in assay [9]; 51% in assay [12]; 56% in assay [6]; 97% in assay [11]; 198% in [7]; 85% in assay [13]. Besides, the “% activity” value in assay [14] is 359%; in assay [15], 110%.

In the case of FAKLAARLYRKALARQLGVAA [MMI-0300], the “% activity” value in [5] was 100%; in [12], 101%; in [10] it was 125%; in assay [6] it was 81%; in [13], 93%; in assay [14], −2%. Besides, the “% activity” value in assay [15] is recorded as 92%; in assay [8], 97%.
